Measurements from IntAct's records for PubMed 11604410.

B1: Serine protease HTRA2, mitochondrial (Mus musculus), Q9JIY5 (parent)
chain: MAALKAGRGANWSLRAWRALGGIFWRKPPLLAPDLRALLTSGTPDSQIWMTYGTPSLPAQVPEGFLASRADLTSRTPDLWARLNVGTSGSSDQEARRSPGSRRREWLAVAVGAGGAVVLLLWGWGRGLSTVLAAVPAPPPTSPRSQYNFIADVVEKTAPAVVYIEILDRHPFSGREVPISNGSGFVVASDGLIVTNAHVVADRRRVRVRLPSGDTYEAMVTAVDPVADIATLRIQTKEPLPTLPLGRSADVRQGEFVVAMGSPFALQNTITSGIVSSAQRPARDLGLPQNNVEYIQTDAAIDFGNSGGPLVNLDGEVIGVNTMKVTAGISFAIPSDRLREFLHRGEKKNSWFGTSGSQRRYIGVMMLTLTPSILIELQLREPSFPDVQHGVLIHKVILGSPAHRAGLRPGDVILAIGEKLAQNAEDVYEAVRTQSQLAVRIRRGSETLTLYVTPEVTE
B2: Diablo IAP-binding mitochondrial protein (Mus musculus), Q9JIQ3 (parent)
chain: MAALRSWVTRSVCSLFRYRQRFPVLANSKKRCFSELIKPWHKTVLTGFGMTLCAVPIAQKSEPQSLSNEALMRRAVSLVTDSTSTFLSQTTYALIEAITEYTKAVYTLVSLYRQYTSLLGKMNSQEEDEVWQVIIGARVEMTSKQQEYLKLETTWMTAVGLSEMAAEAAYQTGADQASITARNHIQLVKSQVQEVRQLSQKAETKLAEAQTKELHQKAQEVSDEGADQEEEAYLRED

Variants of: B1
Details: with xiap_human XIAP
For MAALKAGRGANWSLRAWRALGGIFWRKPPLLAPDLRALLTSGTPDSQIWMTYGTPSLPAQVPEGFLASRADLTSRTPDLWARLNVGTSGSSDQEARRSPGSRRREWLAVAVGAGGAVVLLLWGWGRGLSTVLAAVPAPPPTSPGSQYNFIADVVEKTAPAVVYIEILDRHPFSGREVPISNGSGFVVASDGLIVTNAHVVADRRRVRVRLPSGDTYEAMVTAVDPVADIATLRIQTKEPLPTLPLGRSADVRQGEFVVAMGSPFALQNTITSGIVSSAQRPARDLGLPQNNVEYIQTDAAIDFGNSGGPLVNLDGEVIGVNTMKVTAGISFAIPSDRLREFLHRGEKKNSWFGTSGSQRRYIGVMMLTLTPSILIELQLREPSFPDVQHGVLIHKVILGSPAHRAGLRPGDVILAIGEKLAQNAEDVYEAVRTQSQLAVRIRRGSETLTLYVTPEVTE [R144G], the “effect of a mutation on the interaction” value was “disrupting interaction”.

Variants of: B1
Details: with xiap_human XIAP
Remark: another data set of the same source
For MAALKAGRGANWSLRAWRALGGIFWRKPPLLAPDLRALLTSGTPDSQIWMTYGTPSLPAQVPEGFLASRADLTSRTPDLWARLNVGTSGSSDQEARRSPGSRRREWLAVAVGAGGAVVLLLWGWGRGLSTVLAAVPAPPPTSPRSQINFIADVVEKTAPAVVYIEILDRHPFSGREVPISNGSGFVVASDGLIVTNAHVVADRRRVRVRLPSGDTYEAMVTAVDPVADIATLRIQTKEPLPTLPLGRSADVRQGEFVVAMGSPFALQNTITSGIVSSAQRPARDLGLPQNNVEYIQTDAAIDFGNSGGPLVNLDGEVIGVNTMKVTAGISFAIPSDRLREFLHRGEKKNSWFGTSGSQRRYIGVMMLTLTPSILIELQLREPSFPDVQHGVLIHKVILGSPAHRAGLRPGDVILAIGEKLAQNAEDVYEAVRTQSQLAVRIRRGSETLTLYVTPEVTE [Y147I], the “effect of a mutation on the interaction” value was “increasing interaction”.

Variants of: B2
Details: with xiap_mouse Xiap
For MAALRSWVTRSVCSLFRYRQRFPVLANSKKRCFSELIKPWHKTVLTGFGMTLCGVPIAQKSEPQSLSNEALMRRAVSLVTDSTSTFLSQTTYALIEAITEYTKAVYTLVSLYRQYTSLLGKMNSQEEDEVWQVIIGARVEMTSKQQEYLKLETTWMTAVGLSEMAAEAAYQTGADQASITARNHIQLVKSQVQEVRQLSQKAETKLAEAQTKELHQKAQEVSDEGADQEEEAYLRED [A54G], the “effect of a mutation on the interaction” value was “disrupting interaction”.
